As a reminder, the Kd is the constant that tells how readily two partners part at equilibrium. Low values mean a tighter complex, high ones a looser complex.

The text below walks through data of publication PMC4834876 (Journal of molecular biology, 2016).

The target of the test is F-actin (filamentous actin) from rabbit muscle (rabbit, UniProt P68135 1-377). Description: co-sedimentation.

B1: EB1_(248), activated fragment of EB1 lacking the auto-inhibitory acidic tail (domain or fragment)
chain: MAVNVYSTSVTSDNLSRHDMLAWINESLQLNLTKIEQLCSGAAYCQFMDMLFPGSIALKKVKFQAKLEHEYIQNFKILQAGFKRMGVDKIIPVDKLVKGKFQDNFEFVQWFKKFFDANYDGKDYDPVAARQGQETAVAPSLVAPALNKPKKPLTSSSAAPQRPISTQRTAAAPKAGPGVVRKNPGVGNGDDEAAELMQQVNVLKLTVEDLEKERDFYFGKLRNIELICQENEGENDPVLQRIVDILYA
In turn, B1 gave a Kd of approximately 7 µM.
